One molecule from patent publication US20250333497A1, “ACTIVATING ANTIBODIES OF RECEPTOR PROTEINS PLXDC1 AND PLXDC2” (THE REGENTS OF THE UNIVERSITY OF CALIFORNIA, priority 2022, published 2025) can be followed below.

In assay [1] the target is T1, full length PLXDC1 (PLXDC1-Full) (Homo sapiens, UniProt Q8IUK5).
T1 construct: expressed in transfected cells
T1 sequence (Q8IUK5 19-500): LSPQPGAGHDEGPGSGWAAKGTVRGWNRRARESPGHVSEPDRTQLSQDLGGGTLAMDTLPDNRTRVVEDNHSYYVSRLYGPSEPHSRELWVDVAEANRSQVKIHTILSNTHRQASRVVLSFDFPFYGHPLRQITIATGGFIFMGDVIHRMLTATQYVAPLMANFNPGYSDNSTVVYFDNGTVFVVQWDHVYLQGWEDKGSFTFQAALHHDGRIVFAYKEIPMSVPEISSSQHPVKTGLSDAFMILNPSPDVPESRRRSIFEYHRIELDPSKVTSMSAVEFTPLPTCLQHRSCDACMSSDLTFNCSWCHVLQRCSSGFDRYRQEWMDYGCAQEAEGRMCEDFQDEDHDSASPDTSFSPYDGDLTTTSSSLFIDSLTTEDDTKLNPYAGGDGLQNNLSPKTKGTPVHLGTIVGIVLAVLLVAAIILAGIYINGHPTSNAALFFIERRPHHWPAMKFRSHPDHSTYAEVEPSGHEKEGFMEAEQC
Description: Domain A binding specificity: binding to full length PLXDC1 expressed in transfected cells. An excerpt:
(§1) The specific binding to Domain A of a PLXDC protein can be tested with a method described herein. In some embodiments, the method employs a PLXDC with the Domain A deleted. […] An example is Compound 369 as described above.
(§2) The Domain A-binding antibodies are 3-C11, 4-A8, 5-E2, 2-H2, 3-G6, 3-G7, 8-A7, 8-A9, 8-C9 and 8-D9.
(§3) Both full length PLXDC1 and Domain A deleted PLXDC1 (PLXDC1-dA) have an epitope tag on the N-terminus.

Assay [2] concerns the target T2, Domain A-deleted PLXDC1 (PLXDC1-dA) (Homo sapiens, UniProt Q8IUK5).
T2 construct: expressed in transfected cells
Description: Domain A binding specificity: binding to Domain A-deleted PLXDC1 expressed in transfected cells.
Excerpt: as §1, §2, §3

Assay [3] relates to PLXDC1. The assay can be described thus: Promotor activity in PLXDC1-expressing cells (activation of PLXDC signaling). The class given is cell-based. An excerpt:
This example tested some of the identified antibodies for their activity in activating PLXDC signaling.

The subject of assay [4] is PLXDC1. The assay can be described thus: Antibody binding to PLXDC1 with and without small molecule agonist compound 369 (FIG. 5).
For assay [5], the system named is human lung tumor endothelial cells expressing PLXDC1. The assay can be described thus: Ex vivo tumor angiogenesis model: killing of tumor endothelial cells. The settings on record: signal day 1 vs day 8, 500 nM printed for 3-G7. The assay is classed as cell-based. As to the method: The following protocol describes the Ex Vivo Tumor Angiogenesis Model.
1. The day before the experiment, all necessary tools were sprayed with 70% ethanol and sterilized under UV light overnight, including blade, dissecting and micro-dissecting scissors and […]. 24-well dishes were placed at 4° C. to pre-chill plates and Matrigel was thawed, 24 hours before tumor dissection.
2. 70% ethanol was sprayed on working bench. Two sterile petri dishes were prepared with 10 ml sterile PBS. The following steps 3 and 4 are necessary for mouse tumor models. For fresh human tumor, steps 3 and 4 are skipped.
3. The tumor-bearing mice were euthanized. 70% ethanol was sprayed on the mouse and the tumor was removed using sterilized dissecting tools (avoid the fur). The tumor was rinsed in petri dish with sterile PBS to remove ethanol and fur. The tumor was transferred to a new petri dish with PBS for dissection. The dish is placed on ice.
4. […]
9. When the assay was ready to be analyzed for cell death (e.g., 48 hours after drug addition), the dye mixture was prepared by mixing 6 μl of green dye to stain live cells (5 mg/ml Fluorescein diacetate or FDA in DMSO) with 30 μl of red dye (2.5 mg/ml Propidium iodide or PI in PBS) to stain dead cells in an Eppendorf tube. […]
14. Taking pictures in the red and green channels would allow not only the recording of the results but also more accurate quantitation of the results. […]

Where [6] appears, read: antibodies of Table 3 tested for ability to bind Domain A.
Setting [7] is: transfected into a cell line that does not express PLXDC1, FIG. 3-4.

B1: A006: VH SEQ ID NO:72, VL SEQ ID NO:73; Domain A-binding PLXDC1-activating antibody (antibody, V domains shown)
VH: QVQLVQSGAEVKKPGSSVKVSCKASGGTFSTEYISWVRQAPGQGLEWMGRIIPVLGITNYAQKFQGRVTITADESTSTAYMELSSLRSEDTAVYYCARHLGPPYLVTYSHGFDVWGQGTLVTVSS
VL: EIVMTQSPATLSVSPGERATLSCRASQSLGTNLAWYQQKPGQAPRLLIYGASTRATGIPARFSGSGSGTEFTLTISSLQSEDFAVYYCQQYYEAPPTFGQGTKVEIK
Consider B1, for which the “binding to PLXDC1” value in assay [1] (setting [6]) is listed as “able to bind PLXDC1”. For the same molecule, in assay [1] (setting [7]), the “binding to full length PLXDC1 (PLXDC1-Full)” value is given as “only bound to full length PLXDC1”. Besides, the “binding to PLXDC1 mutant with Domain A deleted” value in assay [2] (setting [6]) is listed as “not the mutant with Domain A deleted”. Besides, in assay [2] (setting [7]), the “binding to Domain A-deleted PLXDC1 (PLXDC1-dA)” value is reported as “did not bind to Domain A-deleted PLXDC1”. Also, the “promotor activity in PLXDC1-expressing cells” value in the assay on PLXDC1 [3] (PLXDC1-expressing cells) was “activated the promotor activity”. In addition, in the assay on PLXDC1 [3] (cells without PLXDC1), the “promotor activity in cells without PLXDC1” value is “not in cells without PLXDC1”. In the assay with PLXDC1 [4] (small molecule agonist compound 369 present, FIG. 5 upper curve), the “affinity to PLXDC1 when compound 369 was added” value is recorded as “greatly higher affinity”. In addition, the “affinity to standalone PLXDC1” value in the assay with PLXDC1 [4] (without compound 369, FIG. 5 lower curve) is on record as “low nM affinity”. Besides, in assay [5], the “death of tumor endothelial cells expressing PLXDC1” value is given as “led to the death of tumor endothelial cells expressing PLXDC1”.
